Test results published in article PMC9482650, “Quantitative fragmentomics allow affinity mapping of interactomes” (Nature Communications, 2022).

Target: T1, APBA2_2, Q99767
T1 sequence (Q99767 654-744, limits assumed, looked up): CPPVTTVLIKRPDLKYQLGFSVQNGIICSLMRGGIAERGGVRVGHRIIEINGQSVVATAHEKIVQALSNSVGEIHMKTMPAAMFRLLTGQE
Assay: holdup assay
Parameters: key: below the threshold = too weak to quantify, mostly under pKd 3.1 to 4
Conditions: plain residues with an end cap or a label only (N-terminal biotin on a linker: ado-ado)

Row | Binder | pKd
1 | RRLQGTSSMV [GOLT1A, Q6ZVE7] | below the threshold

Target: T2, ARHGAP21, Q5T5U3
T2 sequence (Q5T5U3 45-169, limits assumed, looked up): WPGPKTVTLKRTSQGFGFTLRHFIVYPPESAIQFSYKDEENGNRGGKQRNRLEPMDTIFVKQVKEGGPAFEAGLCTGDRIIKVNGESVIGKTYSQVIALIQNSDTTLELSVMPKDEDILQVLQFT
Assay: holdup assay
Parameters: key: below the threshold = too weak to quantify, mostly under pKd 3.1 to 4
Conditions: plain residues with an end cap or a label only (N-terminal biotin on a linker: ado-ado)

Row | Binder | pKd
2 | RRLQGTSSMV [GOLT1A, Q6ZVE7] | below the threshold

Target: DLG1_2, Q12959
Sequence (Q12959 314-412): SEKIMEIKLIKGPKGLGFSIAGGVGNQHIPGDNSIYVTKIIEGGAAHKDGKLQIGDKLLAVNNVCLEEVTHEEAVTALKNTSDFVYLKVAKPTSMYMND
Assay: holdup assay
Parameters: key: below the threshold = too weak to quantify, mostly under pKd 3.1 to 4
Conditions: plain residues with an end cap or a label only (N-terminal biotin on a linker: ado-ado)

Row | Binder | pKd
3 | RRLQGTSSMV [GOLT1A, Q6ZVE7] | 4.71

Target: DLG2_3, Q15700
Assay: holdup assay
Parameters: key: below the threshold = too weak to quantify, mostly under pKd 3.1 to 4
Conditions: plain residues with an end cap or a label only (N-terminal biotin on a linker: ado-ado)

Row | Binder | pKd
4 | RRLQGTSSMV [GOLT1A, Q6ZVE7] | 4.06

Target: DLG4_1, P78352
Sequence (P78352 62-152): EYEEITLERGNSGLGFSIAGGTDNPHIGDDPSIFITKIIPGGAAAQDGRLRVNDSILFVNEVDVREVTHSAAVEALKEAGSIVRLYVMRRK
Assay: holdup assay
Parameters: key: below the threshold = too weak to quantify, mostly under pKd 3.1 to 4
Conditions: plain residues with an end cap or a label only (N-terminal biotin on a linker: ado-ado)

Row | Binder | pKd
5 | RRLQGTSSMV [GOLT1A, Q6ZVE7] | 4.04

Target: DLG4_2, P78352
Sequence (P78352 155-259): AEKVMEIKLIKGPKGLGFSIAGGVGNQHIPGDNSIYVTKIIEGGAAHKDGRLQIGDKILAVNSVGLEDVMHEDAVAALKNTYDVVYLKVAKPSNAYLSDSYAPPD
Assay: holdup assay
Parameters: key: below the threshold = too weak to quantify, mostly under pKd 3.1 to 4
Conditions: plain residues with an end cap or a label only (N-terminal biotin on a linker: ado-ado)

Row | Binder | pKd
6 | RRLQGTSSMV [GOLT1A, Q6ZVE7] | 4.71

Target: DLG4_3, P78352
Sequence (P78352 306-403): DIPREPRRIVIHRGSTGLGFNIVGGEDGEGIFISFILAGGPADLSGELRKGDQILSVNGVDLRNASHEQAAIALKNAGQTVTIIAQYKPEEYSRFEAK
Assay: holdup assay
Parameters: key: below the threshold = too weak to quantify, mostly under pKd 3.1 to 4
Conditions: plain residues with an end cap or a label only (N-terminal biotin on a linker: ado-ado)

Row | Binder | pKd
7 | RRLQGTSSMV [GOLT1A, Q6ZVE7] | below the threshold

Target: FRMPD3, Q5JV73
Sequence (Q5JV73 12-100): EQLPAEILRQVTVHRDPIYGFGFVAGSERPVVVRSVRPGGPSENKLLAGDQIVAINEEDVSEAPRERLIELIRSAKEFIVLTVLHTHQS
Assay: holdup assay
Parameters: key: below the threshold = too weak to quantify, mostly under pKd 3.1 to 4
Conditions: plain residues with an end cap or a label only (N-terminal biotin on a linker: ado-ado)

Row | Binder | pKd
8 | RRLQGTSSMV [GOLT1A, Q6ZVE7] | below the threshold

Target: FRMPD4, Q14CM0
Sequence (Q14CM0 67-160): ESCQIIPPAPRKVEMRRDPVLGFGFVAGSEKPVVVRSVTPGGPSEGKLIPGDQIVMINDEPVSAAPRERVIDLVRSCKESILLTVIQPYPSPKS
Assay: holdup assay
Parameters: key: below the threshold = too weak to quantify, mostly under pKd 3.1 to 4
Conditions: plain residues with an end cap or a label only (N-terminal biotin on a linker: ado-ado)

Row | Binder | pKd
9 | RRLQGTSSMV [GOLT1A, Q6ZVE7] | below the threshold

Target: GOPC, Q9HD26
Assay: holdup assay
Parameters: key: below the threshold = too weak to quantify, mostly under pKd 3.1 to 4
Conditions: plain residues with an end cap or a label only (N-terminal biotin on a linker: ado-ado)

Row | Binder | pKd
10 | RRLQGTSSMV [GOLT1A, Q6ZVE7] | below the threshold

Target: GORASP1, Q9BQQ3
Sequence (Q9BQQ3 1-208): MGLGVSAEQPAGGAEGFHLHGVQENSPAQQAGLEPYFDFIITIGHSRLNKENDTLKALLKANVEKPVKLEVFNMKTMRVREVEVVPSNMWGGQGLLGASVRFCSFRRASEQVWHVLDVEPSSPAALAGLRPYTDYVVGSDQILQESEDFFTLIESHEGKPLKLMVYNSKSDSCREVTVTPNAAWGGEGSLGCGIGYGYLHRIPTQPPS
Assay: holdup assay
Parameters: key: below the threshold = too weak to quantify, mostly under pKd 3.1 to 4
Conditions: plain residues with an end cap or a label only (N-terminal biotin on a linker: ado-ado)

Row | Binder | pKd
11 | RRLQGTSSMV [GOLT1A, Q6ZVE7] | 3.67

Target: GRASP, Q7Z6J2
Sequence (Q7Z6J2 96-193): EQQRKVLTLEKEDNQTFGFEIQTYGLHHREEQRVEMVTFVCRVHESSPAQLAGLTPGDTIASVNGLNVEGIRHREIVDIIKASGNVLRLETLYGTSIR
Assay: holdup assay
Parameters: key: below the threshold = too weak to quantify, mostly under pKd 3.1 to 4
Conditions: plain residues with an end cap or a label only (N-terminal biotin on a linker: ado-ado)

Row | Binder | pKd
12 | RRLQGTSSMV [GOLT1A, Q6ZVE7] | 3.89

Target: GRIP2_4, Q9C0E4
Sequence (Q9C0E4 446-548): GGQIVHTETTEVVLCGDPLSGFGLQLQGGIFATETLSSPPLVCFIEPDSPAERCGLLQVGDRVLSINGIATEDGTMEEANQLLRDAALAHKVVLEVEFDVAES
Assay: holdup assay
Parameters: key: below the threshold = too weak to quantify, mostly under pKd 3.1 to 4
Conditions: plain residues with an end cap or a label only (N-terminal biotin on a linker: ado-ado)

Row | Binder | pKd
13 | RRLQGTSSMV [GOLT1A, Q6ZVE7] | below the threshold

Target: GRIP2_7, Q9C0E4
Sequence (Q9C0E4 934-1023): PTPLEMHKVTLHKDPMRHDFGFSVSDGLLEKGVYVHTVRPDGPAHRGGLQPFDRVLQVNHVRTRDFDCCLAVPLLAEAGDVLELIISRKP
Assay: holdup assay
Parameters: key: below the threshold = too weak to quantify, mostly under pKd 3.1 to 4
Conditions: plain residues with an end cap or a label only (N-terminal biotin on a linker: ado-ado)

Row | Binder | pKd
14 | RRLQGTSSMV [GOLT1A, Q6ZVE7] | below the threshold

Target: HTRA1, Q92743
Sequence (Q92743 360-477): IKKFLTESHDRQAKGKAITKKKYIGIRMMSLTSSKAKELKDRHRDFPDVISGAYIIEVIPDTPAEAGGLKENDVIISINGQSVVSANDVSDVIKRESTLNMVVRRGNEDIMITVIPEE
Assay: holdup assay
Parameters: key: below the threshold = too weak to quantify, mostly under pKd 3.1 to 4
Conditions: plain residues with an end cap or a label only (N-terminal biotin on a linker: ado-ado)

Row | Binder | pKd
15 | RRLQGTSSMV [GOLT1A, Q6ZVE7] | 4

Target: T3, HTRA4, P83105
T3 sequence (P83105 378-476, limits assumed, looked up): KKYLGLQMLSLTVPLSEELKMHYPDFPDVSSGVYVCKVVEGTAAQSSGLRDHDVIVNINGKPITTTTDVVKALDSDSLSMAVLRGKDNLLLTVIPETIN
Assay: holdup assay
Parameters: key: below the threshold = too weak to quantify, mostly under pKd 3.1 to 4
Conditions: plain residues with an end cap or a label only (N-terminal biotin on a linker: ado-ado)

Row | Binder | pKd
16 | RRLQGTSSMV [GOLT1A, Q6ZVE7] | below the threshold

Target: IL16_3, Q14005
Sequence (Q14005 1107-1207): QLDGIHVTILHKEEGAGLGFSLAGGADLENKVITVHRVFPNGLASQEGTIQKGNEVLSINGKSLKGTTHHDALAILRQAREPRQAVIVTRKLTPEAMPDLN
Assay: holdup assay
Parameters: key: below the threshold = too weak to quantify, mostly under pKd 3.1 to 4
Conditions: plain residues with an end cap or a label only (N-terminal biotin on a linker: ado-ado)

Row | Binder | pKd
17 | RRLQGTSSMV [GOLT1A, Q6ZVE7] | below the threshold

Target: IL16_4, Q14005
Sequence (Q14005 1229-1329): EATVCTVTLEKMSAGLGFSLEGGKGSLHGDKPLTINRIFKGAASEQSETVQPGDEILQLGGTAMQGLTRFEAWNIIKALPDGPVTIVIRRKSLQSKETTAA
Assay: holdup assay
Parameters: key: below the threshold = too weak to quantify, mostly under pKd 3.1 to 4
Conditions: plain residues with an end cap or a label only (N-terminal biotin on a linker: ado-ado)

Row | Binder | pKd
18 | RRLQGTSSMV [GOLT1A, Q6ZVE7] | below the threshold

Target: Inadl_4, Q8NI35
Sequence (Q8NI35 547-651): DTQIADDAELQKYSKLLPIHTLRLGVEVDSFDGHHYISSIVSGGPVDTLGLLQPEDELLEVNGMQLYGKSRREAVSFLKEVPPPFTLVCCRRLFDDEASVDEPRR
Assay: holdup assay
Parameters: key: below the threshold = too weak to quantify, mostly under pKd 3.1 to 4
Conditions: plain residues with an end cap or a label only (N-terminal biotin on a linker: ado-ado)

Row | Binder | pKd
19 | RRLQGTSSMV [GOLT1A, Q6ZVE7] | below the threshold

Target: Inadl_5, Q8NI35
Sequence (Q8NI35 673-780): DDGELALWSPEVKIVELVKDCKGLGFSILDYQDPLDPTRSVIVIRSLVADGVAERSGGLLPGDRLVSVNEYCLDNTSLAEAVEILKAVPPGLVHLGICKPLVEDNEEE
Assay: holdup assay
Parameters: key: below the threshold = too weak to quantify, mostly under pKd 3.1 to 4
Conditions: plain residues with an end cap or a label only (N-terminal biotin on a linker: ado-ado)

Row | Binder | pKd
20 | RRLQGTSSMV [GOLT1A, Q6ZVE7] | below the threshold

Target: Inadl_8, Q8NI35
Sequence (Q8NI35 1425-1530): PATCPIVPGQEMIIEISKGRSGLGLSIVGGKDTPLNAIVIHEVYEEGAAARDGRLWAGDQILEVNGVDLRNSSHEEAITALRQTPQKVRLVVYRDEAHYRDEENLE
Assay: holdup assay
Parameters: key: below the threshold = too weak to quantify, mostly under pKd 3.1 to 4
Conditions: plain residues with an end cap or a label only (N-terminal biotin on a linker: ado-ado)

Row | Binder | pKd
21 | RRLQGTSSMV [GOLT1A, Q6ZVE7] | 4.08

Target: LAP2, Q96RT1
Sequence (Q96RT1 other isoform, or with tags, fused parts or gaps): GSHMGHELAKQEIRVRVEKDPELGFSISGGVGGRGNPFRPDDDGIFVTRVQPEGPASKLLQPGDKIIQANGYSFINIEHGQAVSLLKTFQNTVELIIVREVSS
Assay: holdup assay
Parameters: key: below the threshold = too weak to quantify, mostly under pKd 3.1 to 4
Conditions: plain residues with an end cap or a label only (N-terminal biotin on a linker: ado-ado)

Row | Binder | pKd
22 | RRLQGTSSMV [GOLT1A, Q6ZVE7] | below the threshold

Target: LDB3, O75112
Sequence (O75112 1-94): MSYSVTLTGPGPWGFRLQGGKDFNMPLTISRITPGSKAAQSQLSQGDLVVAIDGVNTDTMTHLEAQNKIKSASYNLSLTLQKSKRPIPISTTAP
Assay: holdup assay
Parameters: key: below the threshold = too weak to quantify, mostly under pKd 3.1 to 4
Conditions: plain residues with an end cap or a label only (N-terminal biotin on a linker: ado-ado)

Row | Binder | pKd
23 | RRLQGTSSMV [GOLT1A, Q6ZVE7] | below the threshold

Target: T4, LIN7C, Q9NUP9
T4 sequence (Q9NUP9 88-185, limits assumed, looked up): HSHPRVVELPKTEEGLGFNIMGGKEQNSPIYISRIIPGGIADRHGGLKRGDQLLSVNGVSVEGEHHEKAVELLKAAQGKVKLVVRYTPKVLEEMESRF
Assay: holdup assay
Parameters: key: below the threshold = too weak to quantify, mostly under pKd 3.1 to 4
Conditions: plain residues with an end cap or a label only (N-terminal biotin on a linker: ado-ado)

Row | Binder | pKd
24 | RRLQGTSSMV [GOLT1A, Q6ZVE7] | below the threshold

Target: LNX1_1, Q8TBB1
Sequence (Q8TBB1 261-371): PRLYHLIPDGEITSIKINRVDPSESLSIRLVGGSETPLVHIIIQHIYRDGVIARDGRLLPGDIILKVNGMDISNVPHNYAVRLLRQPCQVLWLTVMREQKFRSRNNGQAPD
Assay: holdup assay
Parameters: key: below the threshold = too weak to quantify, mostly under pKd 3.1 to 4
Conditions: plain residues with an end cap or a label only (N-terminal biotin on a linker: ado-ado)

Row | Binder | pKd
25 | RRLQGTSSMV [GOLT1A, Q6ZVE7] | 3.83

Target: T5, LNX2_2, Q8N448
T5 sequence (Q8N448 334-432, limits assumed, looked up): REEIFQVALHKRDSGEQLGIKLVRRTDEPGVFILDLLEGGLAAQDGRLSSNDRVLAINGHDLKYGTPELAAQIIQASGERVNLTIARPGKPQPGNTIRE
Assay: holdup assay
Parameters: key: below the threshold = too weak to quantify, mostly under pKd 3.1 to 4
Conditions: plain residues with an end cap or a label only (N-terminal biotin on a linker: ado-ado)

Row | Binder | pKd
26 | RRLQGTSSMV [GOLT1A, Q6ZVE7] | 3.78

Target: MAGI1_1, Q96QZ7
Sequence (Q96QZ7 1-106): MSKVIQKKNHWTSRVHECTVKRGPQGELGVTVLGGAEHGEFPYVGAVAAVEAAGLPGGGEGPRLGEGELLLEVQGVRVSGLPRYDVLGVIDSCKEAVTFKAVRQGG
Assay: holdup assay
Parameters: key: below the threshold = too weak to quantify, mostly under pKd 3.1 to 4
Conditions: plain residues with an end cap or a label only (N-terminal biotin on a linker: ado-ado)

Row | Binder | pKd
27 | RRLQGTSSMV [GOLT1A, Q6ZVE7] | below the threshold

Target: MAGI2_2, Q86UL8
Sequence (Q86UL8 410-522): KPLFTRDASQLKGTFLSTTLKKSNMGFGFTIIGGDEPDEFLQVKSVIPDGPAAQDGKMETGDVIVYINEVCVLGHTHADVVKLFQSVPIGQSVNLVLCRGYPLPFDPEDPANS
Assay: holdup assay
Parameters: key: below the threshold = too weak to quantify, mostly under pKd 3.1 to 4
Conditions: plain residues with an end cap or a label only (N-terminal biotin on a linker: ado-ado)

Row | Binder | pKd
28 | RRLQGTSSMV [GOLT1A, Q6ZVE7] | 4.69

Target: MAGI2_3, Q86UL8
Sequence (Q86UL8 600-682): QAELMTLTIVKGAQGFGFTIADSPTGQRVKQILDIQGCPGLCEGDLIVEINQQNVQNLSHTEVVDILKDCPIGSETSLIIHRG
Assay: holdup assay
Parameters: key: below the threshold = too weak to quantify, mostly under pKd 3.1 to 4
Conditions: plain residues with an end cap or a label only (N-terminal biotin on a linker: ado-ado)

Row | Binder | pKd
29 | RRLQGTSSMV [GOLT1A, Q6ZVE7] | 3.77

Target: MAGI2_5, Q86UL8
Sequence (Q86UL8 915-1017): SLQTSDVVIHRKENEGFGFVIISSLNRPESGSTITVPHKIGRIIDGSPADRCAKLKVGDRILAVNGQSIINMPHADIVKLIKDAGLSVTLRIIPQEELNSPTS
Assay: holdup assay
Parameters: key: below the threshold = too weak to quantify, mostly under pKd 3.1 to 4
Conditions: plain residues with an end cap or a label only (N-terminal biotin on a linker: ado-ado)

Row | Binder | pKd
30 | RRLQGTSSMV [GOLT1A, Q6ZVE7] | 4

Target: PDLIM1, O00151
Sequence (O00151 1-87): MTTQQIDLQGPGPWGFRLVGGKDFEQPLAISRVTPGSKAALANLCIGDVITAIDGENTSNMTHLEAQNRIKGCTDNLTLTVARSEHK
Assay: holdup assay
Parameters: key: below the threshold = too weak to quantify, mostly under pKd 3.1 to 4
Conditions: plain residues with an end cap or a label only (N-terminal biotin on a linker: ado-ado)

Row | Binder | pKd
31 | RRLQGTSSMV [GOLT1A, Q6ZVE7] | below the threshold

Target: T6, PDZRN3_1, Q9UPQ7
T6 sequence (Q9UPQ7 244-349, limits assumed, looked up): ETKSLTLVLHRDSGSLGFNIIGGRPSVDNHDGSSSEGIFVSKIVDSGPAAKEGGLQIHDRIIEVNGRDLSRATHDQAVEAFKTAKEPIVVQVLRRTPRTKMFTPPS
Assay: holdup assay
Parameters: key: below the threshold = too weak to quantify, mostly under pKd 3.1 to 4
Conditions: plain residues with an end cap or a label only (N-terminal biotin on a linker: ado-ado)

Row | Binder | pKd
32 | RRLQGTSSMV [GOLT1A, Q6ZVE7] | below the threshold

Target: TJP1_2, Q07157
Sequence (Q07157 181-274): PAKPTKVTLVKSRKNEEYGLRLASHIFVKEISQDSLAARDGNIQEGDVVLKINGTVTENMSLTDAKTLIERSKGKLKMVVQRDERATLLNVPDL
Assay: holdup assay
Parameters: key: below the threshold = too weak to quantify, mostly under pKd 3.1 to 4
Conditions: plain residues with an end cap or a label only (N-terminal biotin on a linker: ado-ado)

Row | Binder | pKd
33 | RRLQGTSSMV [GOLT1A, Q6ZVE7] | below the threshold
